Experimental data reported in publication PMC4375503, “Structural Insights into the Autoregulation and Cooperativity of the Human Transcription Factor Ets-2*”.

T1: Ets-2 325-464 (core Ets and autoinhibition domains) (Homo sapiens, UniProt P15036 325-464)
T1 sequence: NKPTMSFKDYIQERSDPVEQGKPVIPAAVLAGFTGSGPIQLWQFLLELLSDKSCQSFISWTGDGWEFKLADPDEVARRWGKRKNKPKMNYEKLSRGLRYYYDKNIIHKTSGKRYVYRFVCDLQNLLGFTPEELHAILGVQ

T2: Ets-2 360-464 (core Ets domain) (Homo sapiens, UniProt P15036 360-464)
T2 sequence: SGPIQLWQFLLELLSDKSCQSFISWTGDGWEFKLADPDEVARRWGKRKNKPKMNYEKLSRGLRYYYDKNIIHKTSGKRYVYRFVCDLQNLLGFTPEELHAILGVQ

T3: Ets-1 short (equivalent of Ets-2 360-464) (Mus musculus, UniProt P27577 331-440)
T3 sequence: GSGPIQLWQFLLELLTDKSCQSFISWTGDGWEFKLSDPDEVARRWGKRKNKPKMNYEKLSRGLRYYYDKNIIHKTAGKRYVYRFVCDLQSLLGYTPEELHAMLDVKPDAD


Assays:
[1] = biological target: T1, Ets-2 325-464 (core Ets and …); experiment: X-ray crystallography; 2.5 A; 3 Ets-2 and 3 duplexes per asymmetric unit; pH 5.5; EMSA: 50 mM Tris-HCl pH 7.5, 25 mM NaCl, 50 mM L-arginine-HCl, 0.5 mM EDTA, 0.1% Tween 20, 2 mM DTT, 5% glycerol, room temperature 15 min; probe 0.1 nM (Ets-2); settings: protein: recombinant; tags: His tag removed by TEV; blunt
[2] = biological target: T2, Ets-2 360-464 (core Ets domain); experiment: EMSA; apparent Kd; EMSA: 50 mM Tris-HCl pH 7.5, 25 mM NaCl, 50 mM L-arginine-HCl, 0.5 mM EDTA, 0.1% Tween 20, 2 mM DTT, 5% glycerol, room temperature 15 min; probe 0.1 nM (Ets-2); settings: protein: recombinant; tags: His tag removed by TEV; label: 5'-32P on strand 1; blunt
[3] = biological target: T3, Ets-1 short (equivalent of Ets-2 …); experiment: as above; settings: protein: recombinant; tags: His tag removed by TEV; label: 5'-32P on strand 1; blunt

Binder	binding result [1]	Kd [2] [nM]	Kd [3] [nM]
crystallization 10-mer (dsDNA) DNA 1: ACCGGAAGTG DNA 2: CACTTCCGGT	binds		
single-site EMSA probe (dsDNA) DNA 1: ATCTCACCGGAAGTGTAGCA DNA 2: TGCTACACTTCCGGTGAGAT		0.4 ± 0.04	0.1 ± 0.06
